Source: a protein production outcome set (Wang et al. 2014)

Test: label from the status in PepcDB records
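Note: failed if final PepcDB status was selected cloned or expressed and not failed if soluble or beyond.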

Row | Sequence | protein production
1 | MDERRAVVLVDELHLRKGGYEAEKVRVFAVRVSETLWAFKALWGSTPFTGTTFV | failed
2 | MPDPQISAIICTHNRDTYLGAAIDSLLVQDFAGEFEVVVIDNGSSDRTREVVEQRSSDSRLKYVFEPTIGLSVARNTGAKFASAEILAYLDDDAVASTHWLQVLYAAYQNYPQLAIAGGKVTLLWPPDTQPPRWLSSGLAGNLGAYDLGDKVVYIQQPGLTPRGLNYSIRRTFLEEIGGFDPHLGRVGKNLLSNEELQMTELALTGGWQVAYLPEALVAHNVAPERLNRSWFLNRGWWQGISECYREQLSGKAGVGQLSRGGERLARGLYKAFRYFSNPAERFDNLVYAYGQIGYLNAVLQGLLFTANNKGSQLEHHHHHH | not failed
3 | MEQHIGELIAHYGYFGIVIALAGGIVGLPIPDEFLLTFVGYNVSKGVMSGTAAFLSGLAGAMLGITLSYILGLKLGLPVLKKYGPKIRIKEHHIEKTHILFEKYGPFLLMIGYFIPGVRHLTAYFAGVSNLTLWRFCLYAYGGALIWISVFIGLGWKLGEKWRFVEYSLHHYGIWILLISAVVTCFVWLYIKKKKNR | failed
4 | MQHSTLEPSTSLDVPSCIPRVSRYPRVKDVIARKYRLVVKTIGYIGWSLFWLLIWDVLVTIDFMLFLNSKFTLPLIPLTLLGSALVVLVSFRNSSAYSRWWEARTLWGALVNSSRSFARQTLTLIDDPDDGLNPVKATLLRRHIAYVNCLAAHLKGESCPEELMAFIPPAEFERRNRSNNFANDILGGSAALLAREYQAGRLDSIRLARLESTLVDLSNAQGGMERIANTPLPYPYVYFPRLFITLFCLIVPVGLVESLGWFTPLASTVVGFMLLAIERIGTDLQSPFRFSEHQIQMDTICETIERNLESMQREAQCAEAVDA | failed
5 | MSYQTWWSRVQVVDPEQLLDAVEEWDRPLVALTTPGTLARGLSLQVFRRIAPDEKNLLIIPHFCISGTIEKRLLEEGCCDENKITNENESIRIRCKTMNLHFGFHADTRDLLLFFSQWKPSCIVLVHGEGEKMDYLARVVQEEWGIQCWVPKEEQWITWKPNLTKSQ | failed
6 | MKVDVDEKTYIITMANDITKLYEENKRNLHYSITDPLTGAYNRKYLNDRFDIFIGDYIVLIDLDNFKMINDYEGHNVGDKILCDFVSLLNKELINSTSIIRLGGDEFIVIFSSDVDKNYVYSQLEALRENFLKVFSKYKYLSFSYGVDTVKRNLKLTIVELDKKMYKNKEKLEHHHHHH | failed
7 | MKTITTTKSPTVKDYIDAYLIERKYCAAPSTLASDLSRAKNINEALGEFPINAVSHTQINMLLVSWHERFRNKTINEHLTILRRISLKAVRDGVIARNPMTGVQNFKTVDPEPNPFTKKELARMHECKNVCTQGQNAVMLNLLTGLRISELIALSWQDINWEREVLYVRRACVLNIYKCPKTKGSVREVDLNPLALKLLKEQLKLTGKRRPQTINILECDNKTFTKDSVSFIFLNTKTNQPFTDAKEFTERFFIKFLEQAGVAHRGVGQLRHTFASQCLTTGISKDWLAVQMGHKSTTMIDKHYGRWIREDSPNYAREAAQHLQDIFGLPQIKPTVTLPAVPHSSLVLLKKLQSKPQLIQLLEGMLESDR | failed
8 | MVIDFSAFYELPRLIDRLAAEGESSFAASRGQAVFPPLNIGEDESAVYVRALIPGGDLSALDLTLTDKTLVLRGELPPVRGRYYRQERRTGPFQRVVLLNVPIDRDRVHAAMRDGVLEVVLPKAQQERLRTIHITTR | failed
9 | MTPDDQLSAFLGEQPATSRADLFTAVVMQKIERRAFLRDVAAAGGWAAVVGLVAWACAPVLNVLIGALAPGLAPAAAALALVAATLLVSSPSVRRRLGLAAV | failed
10 | MAKLVTENISKRFKNQDVLKHINITLENNEVYGLLGINGAGKTTLMKIICGILQQDSGEIKLDNRPMTRNDLHKVGSLIETPATYNHLSAQDNLKIVCLNESVDFSEINSVLSLVNLNVDKKKKVKDFSLGMKQRLGIAMALIKKPEILVLDEPSNGLDPYGIQELRELLKLLTEQGTSIIISSHILSEIQVLADHIGIIHEGELKYQQRNNKDENLEEIFFKITKGDYK | failed
11 | MTPNAPSTFNNMLLIAVFECRKFLFNLRGMIALIAFALVWGMLLLYPIQGASTLLMQPNIKDLIDGLFGNNALNVLFDWPVAEMAIFWCFALYLFPMFSILIAADQFSSDKTRGTLRFYTIRTSKDSLLFGRFLGQILIQGLLILLTILATIALALSRDASLLLPAISSGALVGVNLLIVILPFTAVMTLLSLYASTARQAMVLATILWTVVSIALLILGNESRLFEGLQWLLPGAQLSNMINTNGLNSLAYAPIPLLQTAIALFLGRIYFQRSQL | failed
12 | MSASTGASVIDLYHQAQDYFFVSISQFYRRFGSGLSAYCTGVEASSLNLLMMNVCAVDEPGALAEGVAFLQRTGMPFCVVVPEALVPRVSGQLHQQHLLAADKTTCMVLDLTRHEPRQALAAQAQVRCSDLRLEDWAQPVQSAFESGEGGIEQYLARHRAALSAGRALSHFTLYVEERPVSALTLSLLPGLARLDDIGTVQDCQGQGYATALIQAVLAFARARGARTCVLEASLDGLSIYRKAGFEALFDYRTFCQE | failed
13 | MSLAQIKSLFATRLYHAPLSEHGPALDPAEFAASCYSIAEDDDAGQEWCEREGYPGYTSYASLTDLPWRFPIFADLVKSLDAHVAAFAEDLEFELDGKALRLEDIWINILPEGGVHGSHIHPHSVISGTTYVAMPEGTSALKLEDPRLPFMMAAPTRRKGAREELRTFRSVAPKVGDVLLWESWLRHEVPMNMAEEDRISVSFNYAWGEGHHHHHH | not failed
14 | MDRTEQKSIIEGLLFVSGDEGIYPEQIAKVLEIEGNEVIDILEEMQKECEGAHRGLQIVQYAKVYRFATKKEHASYYQKLIEIPTAASLSQAALETLAIVAYRQPITRTEMEEIRGVKTDKALQTLVSHLLIKEMGRAEGPGRPILYGTTKEFLDTFGLKTLDDLPPLSEENEQMNEADLFFGSLQEISK | failed
15 | MSKNIGLNAIEMSYLRQSLSLSAAQVGQLTNHSEAEVLAWENAETQAPELAQKKLLDIDDIIEMQVLNTTDGIEALFKKEPKRHLAFVVYPTQAIYTQYNPEFLSSLPLTELYNTAAWRIKKECKLVLEVDVSLINLNVEAYKAYREQNGLSESRESRAKWAATQL | not failed
16 | MSVKVMKRLGTLLLLVCVLIILIPQSASAHAYVVKSNPTENETLKKAPSVVKIEFDEDIQVSRFNTLYVRDTSGKRVDLKDAHIDKKNKKLLEAGLKENLKNGLYSIQWKAISADGHPIQGVIPFRIGLAEAETDDVQVEEMGYVPQIDMIMERGILYTSFSLFIGVLFFNLIMYKGNATSVRSRSKNIIWISLFGILISLLFNLPLQAKINADVSWLEAFNPLLLKETLQLSVFGYVWITQMVLISTLIIVTYFAVKHEKFSSFKVWSIPILLFIGLLVMKAFNSHAYGLKFKDIAVVMDFLHLFAASLWVGGLSSIILLLRNEDNKWHMYWDMIKRFSPWATGAVIVILITGLFNSTFFIPTIHSLFDTKYGLVLLTKILLFIFMGILGIIHYVKGRMRAQQGLGATVKVEFIIGIIIFVIVAFMTNVQTPPMPPTGPFTESKQLDNGYEMTLNVSPNRVGQNIFHITLKDENGQPVTDMEQIILTTQSLDMNMGKGSFKVSAVSPGEYEAEGMYINMTGNWNIQVHGLTKSLDSFDTDYKFIVGGR | failed
17 | MNSPAHALTKPRRRTPRRAVRLARRALVGLTAAAILAGTGMGWVTYHGALDGITTSNALAGESGSVGDTENILIMGLDSRLDQHGNPLPEDVYQALHAGDETVGGYNANVLIVVHLPGDGGPATAFSIPRDDYVDLAGCPSGICKGKVKQAYGFAYQAEMEATESEEEDPATREQKAREAGRKAEIATVRNLLGIPIDHFVEVTLGAFFEIAKAVAPITVCLNDDTSDPYSGADFRKGVQQIDAAQAMAFVRQRRDINDENFTDLDRTRRQQAFLAALVSALRQSGALSSPSKLRGLLDVTKQNVALDAGFDLASFTKRASALTDAPPTLYTLPIKEFGQNAYGEDINIIDVPTIRKIVHDLVSKDDPATTTATPDKPELNGHGATLDVINGSTYTGLAAKLQTTFAADNFTEGQIGDAEALEPATTIDYGPGADAAAHSLATELGVTATPSDWVLADTVRLTIGTDFPGTDYLGADMFTSTTSGASESESYGPSETAELTPITTVAATATGTYTPAPTDLSQMTASGIPCVK | failed
